Experimental data published in the supplement of paper PMC11136658.

Tested on: peptide library, one residue held at a place counted from the Y acceptor
Test: relative phosphorylation of the sub-library (ratio to the mean residue at this position); higher = residue favoured
Summary of the method: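 Peptide library mixtures, biotinylated and centred on Tyr, each fixed one residue at one position from −5 to +5. Purified recombinant kinases were incubated with them for 90 min in 384-well plates alongside 50 μM ATP and γ-32P-ATP, and the captured, rinsed peptides on streptavidin membranes were measured by phosphorimaging and ImageQuant. Normalization divided each position's intensities by the sum of its 18 randomized residues (16 for the Ser/Thr-free library) and multiplied by that number, so that values give phosphorylation relative to the mean randomized residue.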

Chain of FGFR4, construct: aa442-end, human (P22455 442-802, looked up): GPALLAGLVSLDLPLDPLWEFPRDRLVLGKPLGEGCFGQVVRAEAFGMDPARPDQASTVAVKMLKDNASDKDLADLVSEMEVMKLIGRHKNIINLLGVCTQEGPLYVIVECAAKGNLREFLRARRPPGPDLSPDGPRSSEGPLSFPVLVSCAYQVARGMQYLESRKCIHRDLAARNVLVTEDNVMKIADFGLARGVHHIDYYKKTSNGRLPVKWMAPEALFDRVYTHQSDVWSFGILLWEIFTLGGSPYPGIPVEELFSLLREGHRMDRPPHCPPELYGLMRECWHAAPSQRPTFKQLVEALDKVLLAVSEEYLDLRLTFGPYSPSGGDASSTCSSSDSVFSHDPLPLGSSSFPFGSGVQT
Chain of FLT3, construct: aa564-end, human (P36888 564-993, looked up): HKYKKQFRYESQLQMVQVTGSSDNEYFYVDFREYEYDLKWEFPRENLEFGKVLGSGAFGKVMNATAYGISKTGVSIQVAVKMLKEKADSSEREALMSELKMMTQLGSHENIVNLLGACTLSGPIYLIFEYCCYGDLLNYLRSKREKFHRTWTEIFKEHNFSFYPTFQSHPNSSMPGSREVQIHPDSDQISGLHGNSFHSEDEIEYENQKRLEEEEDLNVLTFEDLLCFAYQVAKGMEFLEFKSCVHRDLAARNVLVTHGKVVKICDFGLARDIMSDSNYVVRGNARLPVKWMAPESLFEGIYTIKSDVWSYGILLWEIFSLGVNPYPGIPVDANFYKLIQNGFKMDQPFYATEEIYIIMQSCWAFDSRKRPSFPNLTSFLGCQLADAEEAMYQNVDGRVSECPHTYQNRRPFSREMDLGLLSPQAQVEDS

FGFR4, construct: aa442-end, human (from UniProt P22455)
relative phosphorylation
Details | at +1 | at +2 | at +3 | at +4 | at +5 | at -1 | at -2 | at -3 | at -4 | at -5
A fixed | 0.811 | 0.623 | 0.572 | 0.823 | 2.94 | 0.585 | 1.06 | 0.944 | 1.14 | 1.01
D fixed | 0.352 | 1.4 | 0.818 | 1.14 | 0.931 | 2.54 | 1.38 | 1.84 | 1.64 | 1.42
E fixed | 0.566 | 2.01 | 0.647 | 1.39 | 0.71 | 2.03 | 1.75 | 2.52 | 2.01 | 1.38
F fixed | 1.94 | 1.17 | 1.42 | 0.906 | 1.21 | 0.91 | 0.593 | 0.712 | 0.88 | 0.793
G fixed | 0.379 | 0.43 | 0.621 | 1.21 | 0.692 | 0.401 | 1.08 | 1.09 | 1.22 | 1.31
H fixed | 1.55 | 0.88 | 0.767 | 1.13 | 0.954 | 0.985 | 1.05 | 1 | 0.977 | 1.08
I fixed | 1.8 | 1.21 | 2.44 | 0.869 | 0.75 | 1.89 | 0.902 | 0.626 | 0.732 | 0.929
K fixed | 0.29 | 0.37 | 0.27 | 0.602 | 0.913 | 0.311 | 0.693 | 0.614 | 0.699 | 0.845
L fixed | 1.25 | 1.05 | 2.03 | 0.841 | 0.922 | 1.12 | 0.839 | 0.639 | 0.808 | 0.898
M fixed | 1.53 | 1.1 | 1.53 | 1.07 | 0.841 | 0.828 | 0.681 | 0.834 | 0.767 | 0.908
N fixed | 0.341 | 1.04 | 0.425 | 0.873 | 0.832 | 1.03 | 1.05 | 1.25 | 1.03 | 1.1
P fixed | 0.49 | 0.708 | 0.891 | 1.37 | 0.769 | 0.65 | 1.19 | 0.862 | 1.1 | 1.17
Q fixed | 0.678 | 0.705 | 0.524 | 0.94 | 0.927 | 0.646 | 1.11 | 0.901 | 1.07 | 1.03
R fixed | 0.458 | 0.535 | 0.364 | 0.781 | 0.865 | 0.292 | 0.657 | 0.73 | 0.667 | 0.866
S fixed | 0.799 | 0.864 | 0.579 | 0.938 | 0.916 | 0.467 | 1.07 | 1.07 | 0.849 | 0.856
T fixed | 0.807 | 0.934 | 0.686 | 0.88 | 0.625 | 0.966 | 1 | 0.883 | 0.644 | 0.807
V fixed | 1.74 | 1.2 | 1.92 | 0.817 | 0.81 | 1.38 | 1.25 | 0.683 | 0.741 | 0.779
W fixed | 2.22 | 1.77 | 1.5 | 1.43 | 1.4 | 0.952 | 0.639 | 0.794 | 1.02 | 0.811
pThr fixed | 0.826 | 1.95 | 0.731 | 1 | 0.75 | 1.29 | 1.3 | 1.84 | 1.85 | 1.29
pTyr fixed | 3.85 | 6.17 | 1.24 | 1.34 | 0.82 | 7.16 | 1.79 | 2.69 | 2.45 | 1.36

FGR, construct: Full length, human (from UniProt P09769)
relative phosphorylation
Details | at +1 | at +2 | at +3 | at +4 | at +5 | at -1 | at -2 | at -3 | at -4 | at -5
A fixed | 2.2 | 1.05 | 0.869 | 0.85 | 0.72 | 0.929 | 0.952 | 0.88 | 1.03 | 0.985
D fixed | 0.746 | 0.588 | 0.464 | 0.599 | 0.901 | 1.07 | 1.48 | 1.52 | 1.29 | 1.1
E fixed | 0.732 | 0.949 | 0.432 | 0.759 | 0.875 | 1.89 | 1.37 | 1.52 | 1.36 | 0.85
F fixed | 0.643 | 1.12 | 2.33 | 1.21 | 1.25 | 0.601 | 0.711 | 0.915 | 1.07 | 1.07
G fixed | 2.67 | 0.888 | 0.927 | 1.31 | 0.896 | 0.558 | 1.5 | 1.15 | 1.15 | 1.24
H fixed | 0.762 | 0.846 | 0.969 | 0.953 | 0.936 | 1.45 | 0.995 | 0.999 | 0.933 | 0.966
I fixed | 0.827 | 0.906 | 1.3 | 0.792 | 0.71 | 1.86 | 0.626 | 0.635 | 0.829 | 0.907
K fixed | 0.485 | 0.947 | 0.664 | 1.16 | 1.27 | 0.32 | 0.641 | 0.792 | 0.856 | 0.991
L fixed | 0.669 | 0.903 | 0.954 | 0.884 | 0.831 | 1.02 | 0.747 | 0.746 | 1.07 | 0.939
M fixed | 1.01 | 1.02 | 0.806 | 1.05 | 0.751 | 0.754 | 0.576 | 0.799 | 0.83 | 0.945
N fixed | 0.757 | 1.02 | 0.666 | 0.928 | 1.14 | 0.683 | 1.56 | 1.26 | 0.798 | 1.06
P fixed | 0.226 | 0.839 | 1.02 | 1.2 | 0.977 | 2.09 | 0.878 | 1.02 | 1.17 | 1.15
Q fixed | 0.959 | 0.987 | 0.726 | 1.06 | 0.95 | 0.753 | 1.16 | 0.922 | 1.04 | 0.944
R fixed | 0.519 | 1.22 | 0.98 | 1.39 | 1.4 | 0.291 | 0.738 | 0.883 | 0.875 | 1.1
S fixed | 1.52 | 1.14 | 0.882 | 0.862 | 1.11 | 0.572 | 1.43 | 1.19 | 0.841 | 0.875
T fixed | 1.14 | 1.2 | 0.795 | 0.893 | 1.06 | 1.21 | 1.03 | 0.908 | 0.681 | 0.748
V fixed | 0.955 | 0.904 | 1.05 | 0.781 | 0.712 | 1.38 | 0.738 | 0.594 | 0.733 | 0.749
W fixed | 1.17 | 1.48 | 2.17 | 1.33 | 1.52 | 0.556 | 0.859 | 1.26 | 1.45 | 1.38
pThr fixed | 1.35 | 1.11 | 0.787 | 0.528 | 0.963 | 1.12 | 1.48 | 1.74 | 1.05 | 1.02
pTyr fixed | 1.57 | 1.13 | 0.585 | 0.593 | 0.94 | 0.966 | 2.02 | 1.99 | 1.38 | 1.05

FLT3, construct: aa564-end, human (from UniProt P36888)
relative phosphorylation
Details | at +1 | at +2 | at +3 | at +4 | at +5 | at -1 | at -2 | at -3 | at -4 | at -5
A fixed | 0.822 | 0.62 | 0.639 | 0.968 | 0.955 | 0.749 | 0.806 | 0.766 | 1.05 | 0.952
D fixed | 0.318 | 0.629 | 0.321 | 0.688 | 0.696 | 1.49 | 1.19 | 1.44 | 1.33 | 1.14
E fixed | 0.643 | 0.89 | 0.227 | 0.826 | 0.771 | 1.2 | 1.15 | 1.69 | 1.56 | 1.15
F fixed | 2.12 | 1.22 | 1.72 | 0.984 | 1.18 | 1.12 | 0.669 | 0.834 | 1 | 0.998
G fixed | 0.431 | 0.368 | 0.603 | 0.904 | 1.19 | 0.574 | 0.972 | 0.786 | 1.21 | 1.16
H fixed | 1.7 | 0.78 | 0.96 | 1 | 1.15 | 1.56 | 1.1 | 0.946 | 0.938 | 0.976
I fixed | 1.6 | 1.19 | 1.52 | 1.05 | 0.961 | 1.25 | 0.954 | 0.688 | 0.913 | 0.871
K fixed | 0.705 | 1.02 | 0.895 | 1.2 | 0.902 | 0.583 | 0.843 | 1 | 0.874 | 1.05
L fixed | 1.21 | 1.2 | 1.3 | 0.878 | 1.07 | 1.18 | 0.88 | 0.878 | 1.02 | 0.997
M fixed | 1.2 | 1 | 1.09 | 1.22 | 1.18 | 1.02 | 0.701 | 1.03 | 0.889 | 0.869
N fixed | 0.455 | 1.1 | 0.54 | 0.807 | 0.864 | 1.25 | 1.23 | 1.46 | 0.951 | 1.36
P fixed | 0.297 | 0.685 | 0.959 | 0.732 | 1.18 | 0.777 | 1.08 | 0.719 | 0.903 | 0.833
Q fixed | 1 | 0.989 | 0.665 | 1.17 | 0.839 | 1.11 | 1.26 | 1.03 | 1.21 | 1.17
R fixed | 1.01 | 1.63 | 1.6 | 1.89 | 1.06 | 0.639 | 0.957 | 1.27 | 0.924 | 1.43
S fixed | 0.687 | 0.774 | 0.689 | 0.858 | 0.888 | 0.579 | 1.05 | 0.832 | 0.656 | 0.717
T fixed | 0.77 | 0.814 | 0.706 | 0.741 | 1.22 | 0.778 | 0.894 | 0.708 | 0.614 | 0.612
V fixed | 1.61 | 1.16 | 1.65 | 1.08 | 0.938 | 1.4 | 1.52 | 0.878 | 0.808 | 0.787
W fixed | 1.43 | 1.94 | 1.91 | 1 | 0.961 | 0.746 | 0.75 | 1.04 | 1.15 | 0.928
pThr fixed | 0.505 | 0.966 | 0.209 | 0.413 | 0.512 | 1.02 | 0.971 | 1.23 | 0.887 | 1.02
pTyr fixed | 1.92 | 1.34 | 0.334 | 0.649 | 0.693 | 2.37 | 1.29 | 1.63 | 1.43 | 1.11
